Measured values published in US20250327097A1, “ORGANISMS PRODUCING LESS CROTONIC ACID” (Global Bioenergies, priority 2021, published 2025).

B1: I283T-P284D-N285I-N287T-i287aS-S322T-N388M-K394R-C430A-L432F-L434W-S436N-G462P-A463P (protein)
chain: MFLKSLREQINLLKRQGDLRIINRPVDSYLEAAAIIRRSTETKAPVPLMTNIKGYPGCSIVGGLAALSSNPEYPLSRVAMSLGLSTTASAQSIVQYLIDGLKKTPYLPVEIDSNSAPCKQNILRGEDASLAHFPIPQVHQHDGNRYVNTWGVFIVESPDGQWCNWSIQRVQYLNDRQMIALVFPSQHISDIWEEWVKIGKPMPYALVQGCEPIVPYIAGLPLLERNVNEAEYIGALYGKGIEVVKCETHDLRVPASSEVVIEGYFAITREGVEGPFGEFAGYTDIETSLQPILSITAISWQDDPIWPVVAEGKPVDEYHTCTGIGDAAAIQNVLLTANLPVSFVWVPLYSACHLMIVSINRHWRQTHPDLTSEQLTKKVGDVIHQTRMSIKLPRIVVLDDDVDPADTESLLWALATRIHPERKRYFYESAIFPWLNCYSEEERHNRKGKRVIIDALLPENHPPISSFDYAYPDDIKQRVLMHWETDFSHD
B2: I283T-P284D-i284aP-N287P-S322T-N388M-E421V-C430N-L432F-L434W-S436N-dG462-A463T (protein)
chain: MFLKSLREQINLLKRQGDLRIINRPVDSYLEAAAIIRRSTETKAPVPLMTNIKGYPGCSIVGGLAALSSNPEYPLSRVAMSLGLSTTASAQSIVQYLIDGLKKTPYLPVEIDSNSAPCKQNILRGEDASLAHFPIPQVHQHDGNRYVNTWGVFIVESPDGQWCNWSIQRVQYLNDRQMIALVFPSQHISDIWEEWVKIGKPMPYALVQGCEPIVPYIAGLPLLERNVNEAEYIGALYGKGIEVVKCETHDLRVPASSEVVIEGYFAITREGVEGPFGEFAGYTDNEPSLQPILSITAISWQDDPIWPVVAEGKPVDEYHTCTGIGDAAAIQNVLLTANLPVSFVWVPLYSACHLMIVSINRHWRQTHPDLTSEQLTKKVGDVIHQTRMSIKLPKIVVLDDDVDPADTESLLWALATRIHPVRKRYFYESNIFPWLNCYSEEERHNRKGKRVIIDALLPENHGTISSFDYAYPDDIKQRVLMHWETDFSHD
B3: I283T-P284D-i284aP-N287P-S322T-N388M-E421V-C430N-L432F-L434W-S436N-H461T-dG462-A463T (protein)
chain: MFLKSLREQINLLKRQGDLRIINRPVDSYLEAAAIIRRSTETKAPVPLMTNIKGYPGCSIVGGLAALSSNPEYPLSRVAMSLGLSTTASAQSIVQYLIDGLKKTPYLPVEIDSNSAPCKQNILRGEDASLAHFPIPQVHQHDGNRYVNTWGVFIVESPDGQWCNWSIQRVQYLNDRQMIALVFPSQHISDIWEEWVKIGKPMPYALVQGCEPIVPYIAGLPLLERNVNEAEYIGALYGKGIEVVKCETHDLRVPASSEVVIEGYFAITREGVEGPFGEFAGYTDNEPSLQPILSITAISWQDDPIWPVVAEGKPVDEYHTCTGIGDAAAIQNVLLTANLPVSFVWVPLYSACHLMIVSINRHWRQTHPDLTSEQLTKKVGDVIHQTRMSIKLPKIVVLDDDVDPADTESLLWALATRIHPVRKRYFYESNIFPWLNCYSEEERHNRKGKRVIIDALLPENTGTISSFDYAYPDDIKQRVLMHWETDFSHD
B4: I283T-P284D-N285M-N287T-S322T-N388M-K394R-C430A-L432F-L434W-S436N-G462T-A463P (protein)
chain: MFLKSLREQINLLKRQGDLRIINRPVDSYLEAAAIIRRSTETKAPVPLMTNIKGYPGCSIVGGLAALSSNPEYPLSRVAMSLGLSTTASAQSIVQYLIDGLKKTPYLPVEIDSNSAPCKQNILRGEDASLAHFPIPQVHQHDGNRYVNTWGVFIVESPDGQWCNWSIQRVQYLNDRQMIALVFPSQHISDIWEEWVKIGKPMPYALVQGCEPIVPYIAGLPLLERNVNEAEYIGALYGKGIEVVKCETHDLRVPASSEVVIEGYFAITREGVEGPFGEFAGYTDMETSLQPILSITAISWQDDPIWPVVAEGKPVDEYHTCTGIGDAAAIQNVLLTANLPVSFVWVPLYSACHLMIVSINRHWRQTHPDLTSEQLTKKVGDVIHQTRMSIKLPRIVVLDDDVDPADTESLLWALATRIHPERKRYFYESAIFPWLNCYSEEERHNRKGKRVIIDALLPENHTPISSFDYAYPDDIKQRVLMHWETDFSHD
B5: I283T-N285P-N287T-Q290E-S322T-N388M-K394R-dR422-C430A-L432F-L434W-S436N-dG462 (protein)
chain: MFLKSLREQINLLKRQGDLRIINRPVDSYLEAAAIIRRSTETKAPVPLMTNIKGYPGCSIVGGLAALSSNPEYPLSRVAMSLGLSTTASAQSIVQYLIDGLKKTPYLPVEIDSNSAPCKQNILRGEDASLAHFPIPQVHQHDGNRYVNTWGVFIVESPDGQWCNWSIQRVQYLNDRQMIALVFPSQHISDIWEEWVKIGKPMPYALVQGCEPIVPYIAGLPLLERNVNEAEYIGALYGKGIEVVKCETHDLRVPASSEVVIEGYFAITREGVEGPFGEFAGYTPPETSLEPILSITAISWQDDPIWPVVAEGKPVDEYHTCTGIGDAAAIQNVLLTANLPVSFVWVPLYSACHLMIVSINRHWRQTHPDLTSEQLTKKVGDVIHQTRMSIKLPRIVVLDDDVDPADTESLLWALATRIHPERKRYFYESAIFPWLNCYSEEERHNRKGKRVIIDALLPENHGAISSFDYAYPDDIKQRVLMHWETDFSHD
B6: N287K-N388M-K394R-C430N-L432F-L434W-S436N (protein)
chain: MFLKSLREQINLLKRQGDLRIINRPVDSYLEAAAIIRRSTETKAPVPLMTNIKGYPGCSIVGGLAALSSNPEYPLSRVAMSLGLSTTASAQSIVQYLIDGLKKTPYLPVEIDSNSAPCKQNILRGEDASLAHFPIPQVHQHDGNRYVNTWGVFIVESPDGQWCNWSIQRVQYLNDRQMIALVFPSQHISDIWEEWVKIGKPMPYALVQGCEPIVPYIAGLPLLERNVNEAEYIGALYGKGIEVVKCETHDLRVPASSEVVIEGYFAITREGVEGPFGEFAGYIPNEKSLQPILSITAISWQDDPIWPVVAEGKPVDEYHTCSGIGDAAAIQNVLLTANLPVSFVWVPLYSACHLMIVSINRHWRQTHPDLTSEQLTKKVGDVIHQTRMSIKLPRIVVLDDDVDPADTESLLWALATRIHPERKRYFYESNIFPWLNCYSEEERHNRKGKRVIIDALLPENHGAISSFDYAYPDDIKQRVLMHWETDFSHD
B7: L223Y-I283T-N285P-N287T-Q290E-S322T-N388M-K394R-K423G-C430A-L432F-L434W-S436N-dG462 (protein)
chain: MFLKSLREQINLLKRQGDLRIINRPVDSYLEAAAIIRRSTETKAPVPLMTNIKGYPGCSIVGGLAALSSNPEYPLSRVAMSLGLSTTASAQSIVQYLIDGLKKTPYLPVEIDSNSAPCKQNILRGEDASLAHFPIPQVHQHDGNRYVNTWGVFIVESPDGQWCNWSIQRVQYLNDRQMIALVFPSQHISDIWEEWVKIGKPMPYALVQGCEPIVPYIAGLPLYERNVNEAEYIGALYGKGIEVVKCETHDLRVPASSEVVIEGYFAITREGVEGPFGEFAGYTPPETSLEPILSITAISWQDDPIWPVVAEGKPVDEYHTCTGIGDAAAIQNVLLTANLPVSFVWVPLYSACHLMIVSINRHWRQTHPDLTSEQLTKKVGDVIHQTRMSIKLPRIVVLDDDVDPADTESLLWALATRIHPERGRYFYESAIFPWLNCYSEEERHNRKGKRVIIDALLPENHGAISSFDYAYPDDIKQRVLMHWETDFSHD

System: 3-methylcrotonic acid
Type: biochemical, Yersinia frederiksenii
Parameters: key: “+” representing a low increase in activity; “++++” representing a high increase in activity

Molecule	Activity relative to WT
B1	++++
B2	++++
B3	++++
B4	++++
B5	++++
B6	+
B7	++++
